Laboratory results reported in publication PMC7530888 (Nucleic Acids Research, 2020).

Tests used:
[1] = system: nicked duplex DNA substrate (L1); assay: In vitro ligation of nicked duplex DNA; assay type: biochemical; conditions: L1 10 nM, MtbLigA 5 nM alone; 50 μM NAD^+, pH 7.8, 37°C, 3 min; SD ±2.5
[2] = system: mimic DNA substrate (L3); assay: Ligation of true incised abasic site mimic with 5′-dRP; assay type: biochemical; conditions: L3 treated with uracil DNA glycosylase; MtbLigA 0.01-20 nM
[3] = assay type: physicochemical, M. tuberculosis; conditions: Superdex 200 increase 10/30; pH 8.0; calibrated with protein standards
[4] = system: THF containing AP-DNA (N1); assay: Gel shift assay, THF AP-DNA; assay type: binding; conditions: N1 10 nM, MtbLigA 0-40 µM
[5] = Small angle X-ray scattering; assay type: physicochemical, M. tuberculosis; conditions: from P(r); for Dmax: BM29 ESRF, 10°C, pH 8.0
[6] = system: nicked duplex DNA substrate (L2); assay: Ligation of nicked AP-DNA with 5′p-THF; assay type: biochemical; conditions: L2 10 nM, MtbLigA 0.01-20 nM
[7] = system: MtbXthA; assay: Effect on AP-endonuclease activity of MtbXthA; assay type: biochemical, M. tuberculosis; conditions: N1, MtbXthA 10 nM, added protein 5-100 nM; pH 7.8, 37°C, 10 min
[8] = system: MtbXthA; assay: SEC co-elution with MtbXthA; assay type: binding, M. tuberculosis; conditions: Superdex 200; pH 8.0; SDS-PAGE of fractions
[9] = system: apurinic/ apyrimidinic DNA (AP-DNA) substrate (N1); assay: AP-endonuclease assay on THF AP-DNA; assay type: biochemical; conditions: no MtbXthA
[10] = system: MtbXthA^ID; assay: Effect on endonuclease activity of MtbXthA^ID; assay type: biochemical, M. tuberculosis; conditions: N1 20 nM, MtbXthA^ID 10 nM, MtbLigA 5-100 nM

Row | Substance | DNA ligation [1] [%] | ligated product (in words) [2] | Stoke's radii [3] [nm] | complex with THF AP-DNA (in words) [4] | Dmax [5] [nm] | Dmax in presence of nicked DNA ([5]; presence of nicked DNA substrate (S1)) [nm] | ligation of nicked AP-DNA (in words) [6] | effect on AP-endonuclease activity of MtbXthA [7] | interaction with MtbXthA by SEC [8] | effect on AP-DNA substrate alone (in words) [9] | effect on incision activity of MtbXthA^ID [10]
1 | MtbLigA: M. tuberculosis NAD^+-dependent DNA ligase A, full-length | 75 | progressive increase in the ligated product | 4.02 | did not form a complex with THF containing AP-DNA | 16.7 | 14.79 | could ligate the nicked AP-DNA | progressive decrease in product formation | co-eluted | no effect on the AP-DNA substrate | reduction in incision activity
2 | MtbLigA+Nicked DNA: MtbLigA in complex with 27-mer nicked DNA (S1) | – | – | 3.19 | – | 14.79 | – | – | – | – | – | –
3 | BSA: BSA, control for macromolecular crowding [reference compound] | – | – | – | – | – | – | – | exerted no effect | – | – | –
